Results: publication PMC8675206

Key:
[1] = target: DNA-PKcs;Ku70;Ku80 (Homo sapiens (HeLa cells);Homo sapiens …, UniProt P78527;P12956;P13010 1-4128;2-609;2-732, ||); test: pull-down
[2] = target: DNA-PKcs (Homo sapiens (HeLa cells), UniProt P78527 1-4128); test: HX-MS on bead-captured DNA
Sequence of DNA-PKcs (P78527 whole entry): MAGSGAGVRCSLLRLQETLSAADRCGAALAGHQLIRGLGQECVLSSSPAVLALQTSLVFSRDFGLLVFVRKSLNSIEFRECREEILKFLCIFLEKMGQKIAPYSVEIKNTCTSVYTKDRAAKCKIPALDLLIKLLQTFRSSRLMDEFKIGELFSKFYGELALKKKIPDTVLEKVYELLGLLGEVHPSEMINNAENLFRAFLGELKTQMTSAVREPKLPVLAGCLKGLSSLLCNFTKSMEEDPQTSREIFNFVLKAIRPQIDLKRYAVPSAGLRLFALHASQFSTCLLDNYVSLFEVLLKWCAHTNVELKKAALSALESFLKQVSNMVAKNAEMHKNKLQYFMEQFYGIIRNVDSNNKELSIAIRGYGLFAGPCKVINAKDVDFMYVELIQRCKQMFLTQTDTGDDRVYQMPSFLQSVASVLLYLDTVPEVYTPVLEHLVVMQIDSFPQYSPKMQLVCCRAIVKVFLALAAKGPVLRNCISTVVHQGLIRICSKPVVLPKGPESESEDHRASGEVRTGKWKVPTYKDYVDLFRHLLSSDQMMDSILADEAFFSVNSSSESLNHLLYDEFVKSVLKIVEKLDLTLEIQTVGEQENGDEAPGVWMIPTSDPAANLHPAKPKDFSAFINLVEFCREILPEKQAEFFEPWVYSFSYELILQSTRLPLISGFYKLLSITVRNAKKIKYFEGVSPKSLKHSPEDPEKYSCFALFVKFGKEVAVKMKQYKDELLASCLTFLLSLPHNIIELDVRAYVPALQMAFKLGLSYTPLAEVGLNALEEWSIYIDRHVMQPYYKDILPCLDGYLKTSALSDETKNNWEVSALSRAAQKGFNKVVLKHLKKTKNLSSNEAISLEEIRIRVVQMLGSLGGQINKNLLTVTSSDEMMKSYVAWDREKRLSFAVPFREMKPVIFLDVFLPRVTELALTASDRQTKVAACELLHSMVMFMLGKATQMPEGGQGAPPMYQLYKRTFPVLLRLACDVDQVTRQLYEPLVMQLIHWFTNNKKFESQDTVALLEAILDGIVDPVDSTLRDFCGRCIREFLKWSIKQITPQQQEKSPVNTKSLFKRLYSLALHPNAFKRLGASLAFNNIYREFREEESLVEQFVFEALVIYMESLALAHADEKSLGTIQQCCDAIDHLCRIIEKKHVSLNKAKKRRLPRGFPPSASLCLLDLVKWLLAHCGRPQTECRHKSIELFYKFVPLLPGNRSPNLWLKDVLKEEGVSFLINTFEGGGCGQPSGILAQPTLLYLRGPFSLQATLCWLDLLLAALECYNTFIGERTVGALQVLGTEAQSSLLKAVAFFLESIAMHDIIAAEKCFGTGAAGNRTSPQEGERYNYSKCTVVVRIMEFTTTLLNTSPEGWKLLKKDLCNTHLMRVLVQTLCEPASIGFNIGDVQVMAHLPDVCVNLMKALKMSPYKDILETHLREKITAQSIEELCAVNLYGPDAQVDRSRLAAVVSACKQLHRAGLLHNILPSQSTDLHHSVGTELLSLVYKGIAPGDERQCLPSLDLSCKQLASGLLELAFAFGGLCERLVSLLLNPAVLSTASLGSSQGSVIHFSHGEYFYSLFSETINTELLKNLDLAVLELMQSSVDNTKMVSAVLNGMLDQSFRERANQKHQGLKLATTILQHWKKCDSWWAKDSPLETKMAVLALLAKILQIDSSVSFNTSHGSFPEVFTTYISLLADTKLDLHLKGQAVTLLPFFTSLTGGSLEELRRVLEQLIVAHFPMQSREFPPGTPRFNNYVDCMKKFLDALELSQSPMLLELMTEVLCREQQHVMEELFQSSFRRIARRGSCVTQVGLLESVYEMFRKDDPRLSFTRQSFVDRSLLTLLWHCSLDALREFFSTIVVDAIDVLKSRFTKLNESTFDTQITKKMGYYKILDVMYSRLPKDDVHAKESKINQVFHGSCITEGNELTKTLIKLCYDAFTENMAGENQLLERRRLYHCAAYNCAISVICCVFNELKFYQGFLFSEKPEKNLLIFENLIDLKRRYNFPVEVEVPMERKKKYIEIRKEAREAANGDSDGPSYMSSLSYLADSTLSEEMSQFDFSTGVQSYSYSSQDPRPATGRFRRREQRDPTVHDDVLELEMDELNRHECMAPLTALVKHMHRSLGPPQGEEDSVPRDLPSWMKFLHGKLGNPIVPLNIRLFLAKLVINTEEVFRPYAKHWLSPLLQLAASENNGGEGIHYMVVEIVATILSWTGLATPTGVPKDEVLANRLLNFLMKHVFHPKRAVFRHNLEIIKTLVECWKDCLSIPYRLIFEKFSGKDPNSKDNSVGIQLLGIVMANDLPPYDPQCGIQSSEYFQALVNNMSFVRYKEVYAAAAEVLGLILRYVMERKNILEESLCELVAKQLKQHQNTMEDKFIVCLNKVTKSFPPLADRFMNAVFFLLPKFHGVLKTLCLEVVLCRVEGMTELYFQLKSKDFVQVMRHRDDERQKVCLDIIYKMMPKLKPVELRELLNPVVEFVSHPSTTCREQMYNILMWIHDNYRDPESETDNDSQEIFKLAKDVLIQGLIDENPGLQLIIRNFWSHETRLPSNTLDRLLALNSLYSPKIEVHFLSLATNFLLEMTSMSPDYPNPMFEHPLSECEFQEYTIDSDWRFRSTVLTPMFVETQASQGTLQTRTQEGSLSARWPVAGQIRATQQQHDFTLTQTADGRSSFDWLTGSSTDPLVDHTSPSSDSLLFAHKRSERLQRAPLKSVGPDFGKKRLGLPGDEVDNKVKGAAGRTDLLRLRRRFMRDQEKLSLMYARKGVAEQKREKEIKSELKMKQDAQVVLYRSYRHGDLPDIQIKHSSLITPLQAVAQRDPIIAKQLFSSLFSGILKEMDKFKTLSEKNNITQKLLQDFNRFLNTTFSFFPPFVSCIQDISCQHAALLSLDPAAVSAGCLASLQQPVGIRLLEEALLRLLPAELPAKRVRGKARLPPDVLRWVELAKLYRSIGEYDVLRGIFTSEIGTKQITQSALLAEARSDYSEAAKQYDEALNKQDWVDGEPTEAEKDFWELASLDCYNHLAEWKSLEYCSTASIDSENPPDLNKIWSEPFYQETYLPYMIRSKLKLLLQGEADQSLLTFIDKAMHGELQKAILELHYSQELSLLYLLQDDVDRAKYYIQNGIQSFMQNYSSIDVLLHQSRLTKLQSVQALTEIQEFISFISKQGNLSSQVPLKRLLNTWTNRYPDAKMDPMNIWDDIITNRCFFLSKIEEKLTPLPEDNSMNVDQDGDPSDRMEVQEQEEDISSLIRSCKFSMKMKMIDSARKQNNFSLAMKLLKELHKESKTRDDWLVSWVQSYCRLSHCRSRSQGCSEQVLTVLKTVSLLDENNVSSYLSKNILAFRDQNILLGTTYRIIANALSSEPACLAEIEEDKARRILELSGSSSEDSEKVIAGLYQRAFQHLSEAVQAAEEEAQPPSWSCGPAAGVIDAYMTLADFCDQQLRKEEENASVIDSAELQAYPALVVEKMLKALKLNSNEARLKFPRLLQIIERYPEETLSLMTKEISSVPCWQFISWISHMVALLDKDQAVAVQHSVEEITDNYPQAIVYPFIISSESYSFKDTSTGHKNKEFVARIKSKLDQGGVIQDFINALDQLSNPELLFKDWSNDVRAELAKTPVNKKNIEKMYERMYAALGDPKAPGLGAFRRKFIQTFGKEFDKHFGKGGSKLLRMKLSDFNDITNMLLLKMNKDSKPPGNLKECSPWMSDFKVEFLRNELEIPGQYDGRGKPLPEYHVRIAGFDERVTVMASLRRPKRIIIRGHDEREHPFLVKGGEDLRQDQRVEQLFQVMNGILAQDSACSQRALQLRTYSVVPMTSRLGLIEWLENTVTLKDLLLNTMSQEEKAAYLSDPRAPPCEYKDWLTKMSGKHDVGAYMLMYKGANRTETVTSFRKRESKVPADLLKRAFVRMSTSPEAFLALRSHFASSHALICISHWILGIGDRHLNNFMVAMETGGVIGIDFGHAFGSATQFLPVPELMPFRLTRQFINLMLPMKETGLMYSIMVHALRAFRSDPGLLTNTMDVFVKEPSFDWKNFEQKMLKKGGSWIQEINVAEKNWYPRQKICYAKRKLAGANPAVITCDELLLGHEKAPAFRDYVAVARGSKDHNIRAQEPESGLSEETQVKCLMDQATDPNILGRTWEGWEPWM

| Binder | binding result [1] | binding result [2] |
| --- | --- | --- |
| 100bp blunt (dsDNA) DNA 1: GCACAATCTTCTCGCGCAACGCGTCAGTGGGCTGATCATTAACTATCCGCTGGATGACCAGGATGCCATTGCTGTGGAAGCTGCCTGCACTAATGTTCCG DNA 2: CGGAACATTAGTGCAGGCAGCTTCCACAGCAATGGCATCCTGGTCATCCAGCGGATAGTTAATGATCAGCCCACTGACGCGTTGCGCGAGAAGATTGTGC | binds |  |
| 25bp blunt (dsDNA) DNA 1: AAGCTTGCATGCCTGCAGGTCGACC DNA 2: GGTCGACCTGCAGGCATGCAAGCTT |  | binds |
